B1: GNG4, P50150 (peptide)
chain: REKKFFCTIL
B2: TNRC6A, Q8NDV7 (peptide)
chain: DHLGGGGESM
B3: PLCB1, Q9NQ66 (peptide)
chain: IPGKEFDTPL

What follows are binders tested against T1, LIN7A, O14910 (assay: holdup assay). Conditions: plain residues with an end cap or a label only (N-terminal biotin on a linker: ado-ado).
T1 sequence (O14910 103-200, limits assumed, looked up): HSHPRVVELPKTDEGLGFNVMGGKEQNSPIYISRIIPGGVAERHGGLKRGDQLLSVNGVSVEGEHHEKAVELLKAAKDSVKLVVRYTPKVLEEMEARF
Parameters: key: below the threshold = too weak to quantify, mostly under pKd 3.1 to 4

Row | Binder | pKd
1 | B1 | 3.6
2 | B2 | below the threshold
3 | B3 | below the threshold

These binders were tested against T2, RHPN1, Q8TCX5 (assay: holdup assay). Conditions: plain residues with an end cap or a label only (N-terminal biotin on a linker: ado-ado).
T2 sequence (Q8TCX5 508-602, limits assumed, looked up): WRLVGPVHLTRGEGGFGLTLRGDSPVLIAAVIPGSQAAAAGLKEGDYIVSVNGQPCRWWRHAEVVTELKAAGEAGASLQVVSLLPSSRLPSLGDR
Parameters: key: below the threshold = too weak to quantify, mostly under pKd 3.1 to 4

Row | Binder | pKd
4 | B1 | 4.48
5 | B2 | below the threshold
6 | B3 | 3.65

These binders were tested against PTPN3, P26045 (assay: holdup assay). Conditions: plain residues with an end cap or a label only (N-terminal biotin on a linker: ado-ado).
Parameters: key: below the threshold = too weak to quantify, mostly under pKd 3.1 to 4

Sequence of PTPN3, P26045 (P26045 505-587): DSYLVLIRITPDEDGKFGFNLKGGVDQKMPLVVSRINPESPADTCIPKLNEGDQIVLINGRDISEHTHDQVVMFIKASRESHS

Row | Binder | pKd
7 | B1 | 4.47
8 | B2 | 3.7
9 | B3 | 4.82

Each binder was assayed against T3, DFNB31_1, Q9P202 (assay: holdup assay). Conditions: plain residues with an end cap or a label only (N-terminal biotin on a linker: ado-ado).
T3 sequence (Q9P202 135-233, limits assumed, looked up): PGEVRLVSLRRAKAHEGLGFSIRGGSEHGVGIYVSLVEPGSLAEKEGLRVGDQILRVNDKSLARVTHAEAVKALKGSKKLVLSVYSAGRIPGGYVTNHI
Parameters: key: below the threshold = too weak to quantify, mostly under pKd 3.1 to 4

Row | Binder | pKd
10 | B1 | 4.1
11 | B2 | below the threshold
12 | B3 | 4.03

These binders were tested against LIMK2, P53671 (assay: holdup assay). Conditions: plain residues with an end cap or a label only (N-terminal biotin on a linker: ado-ado).
Parameters: key: below the threshold = too weak to quantify, mostly under pKd 3.1 to 4

Sequence of LIMK2, P53671 (P53671 143-248): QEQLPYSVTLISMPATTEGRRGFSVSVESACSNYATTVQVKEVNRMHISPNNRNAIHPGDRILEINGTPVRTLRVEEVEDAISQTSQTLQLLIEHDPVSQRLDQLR

Row | Binder | pKd
13 | B1 | below the threshold
14 | B2 | below the threshold
15 | B3 | below the threshold

The binders below were run against T4, SNTG1, Q9NSN8 (assay: holdup assay). Conditions: plain residues with an end cap or a label only (N-terminal biotin on a linker: ado-ado).
T4 sequence (Q9NSN8 52-150, limits assumed, looked up): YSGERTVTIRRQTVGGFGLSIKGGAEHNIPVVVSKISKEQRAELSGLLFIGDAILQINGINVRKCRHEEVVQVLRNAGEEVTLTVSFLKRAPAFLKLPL
Parameters: key: below the threshold = too weak to quantify, mostly under pKd 3.1 to 4

Row | Binder | pKd
16 | B1 | below the threshold
17 | B2 | below the threshold
18 | B3 | below the threshold

These binders were tested against T5, DLG3_1, Q92796 (assay: holdup assay). Conditions: plain residues with an end cap or a label only (N-terminal biotin on a linker: ado-ado).
T5 sequence (Q92796 125-227, limits assumed, looked up): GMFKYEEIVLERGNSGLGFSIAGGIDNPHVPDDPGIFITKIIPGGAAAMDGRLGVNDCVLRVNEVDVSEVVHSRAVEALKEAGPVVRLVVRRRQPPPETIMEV
Parameters: key: below the threshold = too weak to quantify, mostly under pKd 3.1 to 4

Row | Binder | pKd
19 | B1 | 3.65
20 | B2 | below the threshold
21 | B3 | below the threshold

Each binder was assayed against GORASP2, Q9H8Y8 (assay: holdup assay). Conditions: plain residues with an end cap or a label only (N-terminal biotin on a linker: ado-ado).
Parameters: key: below the threshold = too weak to quantify, mostly under pKd 3.1 to 4

Row | Binder | pKd
22 | B1 | 5.05
23 | B2 | below the threshold
24 | B3 | below the threshold

What follows are binders tested against FRMPD2_3, Q68DX3 (assay: holdup assay). Conditions: plain residues with an end cap or a label only (N-terminal biotin on a linker: ado-ado).
Parameters: key: below the threshold = too weak to quantify, mostly under pKd 3.1 to 4

Sequence of FRMPD2_3, Q68DX3 (Q68DX3 1073-1166): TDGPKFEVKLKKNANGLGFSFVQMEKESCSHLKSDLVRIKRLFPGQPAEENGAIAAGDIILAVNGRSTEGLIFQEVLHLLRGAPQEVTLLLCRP

Row | Binder | pKd
25 | B1 | below the threshold
26 | B2 | below the threshold
27 | B3 | below the threshold

Each binder was assayed against AHNAK1, Q09666 (assay: holdup assay). Conditions: plain residues with an end cap or a label only (N-terminal biotin on a linker: ado-ado).
Parameters: key: below the threshold = too weak to quantify, mostly under pKd 3.1 to 4

Sequence of AHNAK1, Q09666 (Q09666 4-100): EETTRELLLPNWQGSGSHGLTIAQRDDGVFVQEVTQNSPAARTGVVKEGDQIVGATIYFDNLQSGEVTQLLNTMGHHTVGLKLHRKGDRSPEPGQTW

Row | Binder | pKd
28 | B1 | below the threshold
29 | B2 | below the threshold
30 | B3 | below the threshold

The binders below were run against T6, NHERF3_3, Q5T2W1 (assay: holdup assay). Conditions: plain residues with an end cap or a label only (N-terminal biotin on a linker: ado-ado).
T6 sequence (Q5T2W1 238-333, limits assumed, looked up): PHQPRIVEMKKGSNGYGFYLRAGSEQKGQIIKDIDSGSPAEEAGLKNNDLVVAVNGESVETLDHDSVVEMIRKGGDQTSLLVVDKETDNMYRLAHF
Parameters: key: below the threshold = too weak to quantify, mostly under pKd 3.1 to 4

Row | Binder | pKd
31 | B1 | 3.5
32 | B2 | below the threshold
33 | B3 | below the threshold

The binders below were run against Inadl_10, Q8NI35 (assay: holdup assay). Conditions: plain residues with an end cap or a label only (N-terminal biotin on a linker: ado-ado).
Parameters: key: below the threshold = too weak to quantify, mostly under pKd 3.1 to 4

Sequence of Inadl_10, Q8NI35 (Q8NI35 1673-1763): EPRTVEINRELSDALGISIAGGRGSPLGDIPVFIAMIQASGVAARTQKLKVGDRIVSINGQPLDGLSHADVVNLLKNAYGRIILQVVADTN

Row | Binder | pKd
34 | B1 | 4.26
35 | B2 | below the threshold
36 | B3 | below the threshold

What follows are binders tested against TJP1_3, Q07157 (assay: holdup assay). Conditions: plain residues with an end cap or a label only (N-terminal biotin on a linker: ado-ado).
Parameters: key: below the threshold = too weak to quantify, mostly under pKd 3.1 to 4

Sequence of TJP1_3, Q07157 (Q07157 416-512): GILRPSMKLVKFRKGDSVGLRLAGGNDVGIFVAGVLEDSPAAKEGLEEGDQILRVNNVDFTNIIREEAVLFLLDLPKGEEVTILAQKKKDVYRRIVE

Row | Binder | pKd
37 | B1 | below the threshold
38 | B2 | below the threshold
39 | B3 | below the threshold

The binders below were run against NHERF4_1, Q86UT5-2 (assay: holdup assay). Conditions: plain residues with an end cap or a label only (N-terminal biotin on a linker: ado-ado).
Parameters: key: below the threshold = too weak to quantify, mostly under pKd 3.1 to 4

Sequence of NHERF4_1, Q86UT5-2 (Q86UT5 other isoform, or with tags, fused parts or gaps): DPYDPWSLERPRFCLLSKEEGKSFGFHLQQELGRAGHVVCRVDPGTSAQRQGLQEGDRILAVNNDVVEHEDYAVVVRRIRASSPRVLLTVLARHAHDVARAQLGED

Row | Binder | pKd
40 | B1 | 4.56
41 | B2 | below the threshold
42 | B3 | 3.56

Each binder was assayed against T7, PTPN13_1, Q12923 (assay: holdup assay). Conditions: plain residues with an end cap or a label only (N-terminal biotin on a linker: ado-ado).
T7 sequence (Q12923 1088-1188, limits assumed, looked up): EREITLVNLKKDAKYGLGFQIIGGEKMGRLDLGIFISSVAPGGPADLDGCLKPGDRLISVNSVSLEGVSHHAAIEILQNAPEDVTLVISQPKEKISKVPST
Parameters: key: below the threshold = too weak to quantify, mostly under pKd 3.1 to 4

Row | Binder | pKd
43 | B1 | below the threshold
44 | B2 | below the threshold
45 | B3 | below the threshold

The binders below were run against MAGI1_2, Q96QZ7 (assay: holdup assay). Conditions: plain residues with an end cap or a label only (N-terminal biotin on a linker: ado-ado).
Parameters: key: below the threshold = too weak to quantify, mostly under pKd 3.1 to 4

Sequence of MAGI1_2, Q96QZ7 (Q96QZ7 456-580): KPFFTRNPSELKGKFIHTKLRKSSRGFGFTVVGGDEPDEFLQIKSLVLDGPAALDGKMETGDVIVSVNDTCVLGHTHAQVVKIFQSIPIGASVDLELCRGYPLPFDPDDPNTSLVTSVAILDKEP

Row | Binder | pKd
46 | B1 | 4.92
47 | B2 | below the threshold
48 | B3 | below the threshold

These binders were tested against DLG1_3, Q12959 (assay: holdup assay). Conditions: plain residues with an end cap or a label only (N-terminal biotin on a linker: ado-ado).
Parameters: key: below the threshold = too weak to quantify, mostly under pKd 3.1 to 4

Sequence of DLG1_3, Q12959 (Q12959 457-571): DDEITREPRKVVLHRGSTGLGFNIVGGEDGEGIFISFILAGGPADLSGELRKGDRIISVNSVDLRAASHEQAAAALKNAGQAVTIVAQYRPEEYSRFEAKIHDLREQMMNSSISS

Row | Binder | pKd
49 | B1 | 4.35
50 | B2 | below the threshold
51 | B3 | below the threshold

What follows are binders tested against MAGI2_4, Q86UL8 (assay: holdup assay). Conditions: plain residues with an end cap or a label only (N-terminal biotin on a linker: ado-ado).
Parameters: key: below the threshold = too weak to quantify, mostly under pKd 3.1 to 4

Sequence of MAGI2_4, Q86UL8 (Q86UL8 772-865): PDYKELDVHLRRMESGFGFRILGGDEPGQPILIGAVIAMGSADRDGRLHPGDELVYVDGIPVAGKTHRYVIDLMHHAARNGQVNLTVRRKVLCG

Row | Binder | pKd
52 | B1 | 4.26
53 | B2 | below the threshold
54 | B3 | below the threshold

These binders were tested against T8, MPDZ_5, O75970 (assay: holdup assay). Conditions: plain residues with an end cap or a label only (N-terminal biotin on a linker: ado-ado).
T8 sequence (O75970 695-796, limits assumed, looked up): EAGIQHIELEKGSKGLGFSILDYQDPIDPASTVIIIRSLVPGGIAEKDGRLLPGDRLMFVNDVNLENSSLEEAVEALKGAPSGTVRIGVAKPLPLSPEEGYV
Parameters: key: below the threshold = too weak to quantify, mostly under pKd 3.1 to 4

Row | Binder | pKd
55 | B1 | below the threshold
56 | B2 | below the threshold
57 | B3 | below the threshold

The binders below were run against T9, RADIL, Q96JH8 (assay: holdup assay). Conditions: plain residues with an end cap or a label only (N-terminal biotin on a linker: ado-ado).
T9 sequence (Q96JH8 971-1071, limits assumed, looked up): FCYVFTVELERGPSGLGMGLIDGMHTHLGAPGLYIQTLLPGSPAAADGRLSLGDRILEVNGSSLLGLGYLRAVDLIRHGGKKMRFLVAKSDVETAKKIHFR
Parameters: key: below the threshold = too weak to quantify, mostly under pKd 3.1 to 4

Row | Binder | pKd
58 | B1 | 5.25
59 | B2 | below the threshold
60 | B3 | below the threshold

The binders below were run against LNX1_2, Q8TBB1 (assay: holdup assay). Conditions: plain residues with an end cap or a label only (N-terminal biotin on a linker: ado-ado).
Parameters: key: below the threshold = too weak to quantify, mostly under pKd 3.1 to 4

Sequence of LNX1_2, Q8TBB1 (Q8TBB1 371-470): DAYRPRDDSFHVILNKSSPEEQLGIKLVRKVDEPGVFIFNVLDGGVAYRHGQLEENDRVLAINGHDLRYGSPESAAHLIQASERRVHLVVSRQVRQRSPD

Row | Binder | pKd
61 | B1 | below the threshold
62 | B2 | below the threshold
63 | B3 | below the threshold

These binders were tested against SCRIB_2, Q14160 (assay: holdup assay). Conditions: plain residues with an end cap or a label only (N-terminal biotin on a linker: ado-ado).
Parameters: key: below the threshold = too weak to quantify, mostly under pKd 3.1 to 4

Sequence of SCRIB_2, Q14160 (Q14160 857-960): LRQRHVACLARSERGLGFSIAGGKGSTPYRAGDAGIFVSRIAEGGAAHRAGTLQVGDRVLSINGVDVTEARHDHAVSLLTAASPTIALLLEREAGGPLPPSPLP

Row | Binder | pKd
64 | B1 | below the threshold
65 | B2 | below the threshold
66 | B3 | below the threshold

These binders were tested against Inadl_3, Q8NI35 (assay: holdup assay). Conditions: plain residues with an end cap or a label only (N-terminal biotin on a linker: ado-ado).
Parameters: key: below the threshold = too weak to quantify, mostly under pKd 3.1 to 4

Sequence of Inadl_3, Q8NI35 (Q8NI35 359-469): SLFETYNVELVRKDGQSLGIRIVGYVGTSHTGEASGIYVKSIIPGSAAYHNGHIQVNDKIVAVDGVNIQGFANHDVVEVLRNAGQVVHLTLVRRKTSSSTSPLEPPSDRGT

Row | Binder | pKd
67 | B1 | 4.67
68 | B2 | below the threshold
69 | B3 | below the threshold

The binders below were run against T10, DLG3_2, Q92796 (assay: holdup assay). Conditions: plain residues with an end cap or a label only (N-terminal biotin on a linker: ado-ado).
T10 sequence (Q92796 221-321, limits assumed, looked up): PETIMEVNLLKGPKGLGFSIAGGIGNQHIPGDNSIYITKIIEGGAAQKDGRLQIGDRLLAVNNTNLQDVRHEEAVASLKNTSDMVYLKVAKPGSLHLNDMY
Parameters: key: below the threshold = too weak to quantify, mostly under pKd 3.1 to 4

Row | Binder | pKd
70 | B1 | 4.13
71 | B2 | below the threshold
72 | B3 | below the threshold

Each binder was assayed against Inadl_9, Q8NI35 (assay: holdup assay). Conditions: plain residues with an end cap or a label only (N-terminal biotin on a linker: ado-ado).
Parameters: key: below the threshold = too weak to quantify, mostly under pKd 3.1 to 4

Sequence of Inadl_9, Q8NI35 (Q8NI35 1530-1615): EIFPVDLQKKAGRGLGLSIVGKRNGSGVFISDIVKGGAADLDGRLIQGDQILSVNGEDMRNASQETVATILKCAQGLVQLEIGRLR

Row | Binder | pKd
73 | B1 | below the threshold
74 | B2 | below the threshold
75 | B3 | below the threshold

The binders below were run against T11, SNTG2, Q9NY99 (assay: holdup assay). Conditions: plain residues with an end cap or a label only (N-terminal biotin on a linker: ado-ado).
T11 sequence (Q9NY99 68-166, limits assumed, looked up): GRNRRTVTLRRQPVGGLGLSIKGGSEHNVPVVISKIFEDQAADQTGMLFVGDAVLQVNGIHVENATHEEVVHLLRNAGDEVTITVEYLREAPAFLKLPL
Parameters: key: below the threshold = too weak to quantify, mostly under pKd 3.1 to 4

Row | Binder | pKd
76 | B1 | 4.35
77 | B2 | below the threshold
78 | B3 | below the threshold

What follows are binders tested against FRMPD2_2, Q68DX3 (assay: holdup assay). Conditions: plain residues with an end cap or a label only (N-terminal biotin on a linker: ado-ado).
Parameters: key: below the threshold = too weak to quantify, mostly under pKd 3.1 to 4

Sequence of FRMPD2_2, Q68DX3 (Q68DX3 944-1038): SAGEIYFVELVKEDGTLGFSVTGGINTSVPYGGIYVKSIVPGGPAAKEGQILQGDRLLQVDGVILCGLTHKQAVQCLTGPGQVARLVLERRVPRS

Row | Binder | pKd
79 | B1 | below the threshold
80 | B2 | below the threshold
81 | B3 | below the threshold

From article PMC9482650, “Quantitative fragmentomics allow affinity mapping of interactomes” (Nature Communications, 2022)
